The series deals with His-HSFA2 (Arabidopsis thaliana, UniProt O80982 1-345). The series is described as follows: EMSA; HSFA2: 10 mM Tris-HCl pH 7.6, 25 mM KCl, 2.5 mM MgCl2, 1 mM EDTA, 1 mM DTT, 10% glycerol, 25 C 30 min; REF6C: 25 mM Tris-HCl pH 8.0, 100 mM NaCl, 2.5 mM MgCl2. Particulars: protein: recombinant; tags: His (pET32a in Methods); chain copies: 3; label: Cy5 end. (Mobility shift assays separate free from complexed probe on a gel.)
Sequence of His-HSFA2 (O80982 whole entry): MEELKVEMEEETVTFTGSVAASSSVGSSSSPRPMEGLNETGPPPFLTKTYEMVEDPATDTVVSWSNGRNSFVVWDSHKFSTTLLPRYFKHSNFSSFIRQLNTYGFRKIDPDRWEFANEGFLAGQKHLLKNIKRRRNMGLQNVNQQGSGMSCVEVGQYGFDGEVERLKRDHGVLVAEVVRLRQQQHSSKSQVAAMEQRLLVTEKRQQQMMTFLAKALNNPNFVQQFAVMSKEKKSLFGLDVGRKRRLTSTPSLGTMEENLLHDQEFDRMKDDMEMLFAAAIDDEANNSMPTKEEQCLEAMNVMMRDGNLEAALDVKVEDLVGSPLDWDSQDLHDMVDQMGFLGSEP

B1: BRM-HSE-P3 (dsDNA)
DNA 1: AGCCAGTGGCGATAAGATTTTTATTTTTCGAGAAGCCATCTCACTTATCGCCACTGGCT
DNA 2: AGCCAGTGGCGATAAGTGAGATGGCTTCTCGAAAAATAAAAATCTTATCGCCACTGGCT
With B1, the binding result was “binds”.

B2: BRM-HSE-P1 (dsDNA)
DNA 1: AGCCAGTGGCGATAAGAACAAATTTATTCAGGAATCAGAAACACTTATCGCCACTGGCT
DNA 2: AGCCAGTGGCGATAAGTGTTTCTGATTCCTGAATAAATTTGTTCTTATCGCCACTGGCT
Consider B2, for which the binding result is given as “binds”.

B3: BRM-HSE-P2 (dsDNA)
DNA 1: AGCCAGTGGCGATAAGTTTTACTTGTTTCGGGAAAAAAAACTACTTATCGCCACTGGCT
DNA 2: AGCCAGTGGCGATAAGTAGTTTTTTTTCCCGAAACAAGTAAAACTTATCGCCACTGGCT
B3: the binding result was “binds”.

B4: SGIP1-HSE-P4 (dsDNA)
DNA 1: AGCCAGTGGCGATAAGCTCTGAAAAGTTTCTGTCGAAGTCTTATCGCCACTGGCT
DNA 2: AGCCAGTGGCGATAAGACTTCGACAGAAACTTTTCAGAGCTTATCGCCACTGGCT
B4: the binding result is listed as “binds”.

B5: REF6-HSE-P1 (dsDNA)
DNA 1: AGCCAGTGGCGATAAGCTACTAATTTCATGAACTACCAAAGACTCTTATCGCCACTGGCT
DNA 2: AGCCAGTGGCGATAAGAGTCTTTGGTAGTTCATGAAATTAGTAGCTTATCGCCACTGGCT
For the molecule B5, the binding result is given as “binds”.

These data come from publication PMC6796840, “An H3K27me3 demethylase-HSFA2 regulatory loop orchestrates transgenerational thermomemory in Arabidopsis”.
